From publication PMC11793827 (PLOS Pathogens, 2025)

Legend:
[1] = biological target: T1, Omicron BA.1 SARS-CoV-2 RBD (SARS-CoV-2, Omicron BA.1, Q493R); experiment: ELISA; settings: both partners purified
T1 construct: also called Omicron BA.1 RBD; BA.1 RBD

[2] = biological target: T2, Omicron BA.5 SARS-CoV-2 RBD (SARS-CoV-2, Omicron BA.5 (RBD same as …, strain)); experiment: ELISA; settings: both partners purified
T2 construct: also called Omicron BA.5 RBD; BA.5 RBD

B1: BP3D5 (VHH)
VHH: EVQLQASGGGFVQPGGSLRLSCAASGRAFRIYTMGWFRQAPGKEREFVSAISAGDGAASYYADSVKGRFTISRDNSKNTVYLQMNSLRAEDTATYYCAQYWQSINPIYWGQGTQVTVSS
notes: also called HCAb BP3D5
Kd [1]: 1.12 nM
Kd [2]: 1.83 nM
